Laboratory results published in US7700329B2, “Methods for making simvastatin and intermediates” (priority 2003, dated 2010).
≈ marks a conversion by molar mass, not a printed value. Values belong to the molecule of their own block, whether it stands above or below them.

Assays:
[1] = physchem; details: pH 9.5
[2] = pH 8
[3] = Enzyme screen for hydrolysis of lovastatin or lovastatin acid; format: biochemical; details: 2.5 mM substrate, 100 mM phosphate buffer/co-solvent pH 7 to 8, 30° C., 48 h; confirmed at 1 mM
Description: (§1) Any method for screening for enzymes for use in the methods of the invention, e.g., enzymes for the hydrolysis of lovastatin, lovastatin acid, 4-acetyl simvastatin or simvastatin, can be used, and, these methods are well known in the art. For example, in one exemplary set of screen conditions used to determine an enzyme(s) to be used in a method of the invention comprises use of 2.5 mM substrate, 100 mM phosphate buffer/co-solvent pH 7 to pH 8, 30° C., 48 h, with the following composition: (i) lovastatin or simvastatin in MTBE/buffer, (ii) lovastatin or simvastatin in toluene/buffer, (iii) lovastatin acid or simvastatin acid in 10% methanol/buffer. Screen results were confirmed at 1 mM substrate. […] SEQ ID NO:4 and SEQ ID NO:2 were further evaluated at 25, 50 and 100 mM lovastatin acid in 10% MeOH/buffer, pH 9, the more soluble lovastatin acid being used as substrate for convenience.

[4] = Large-scale hydrolysis of lovastatin, specific activity of esterase; format: biochemical; details: 100 g scale, 0.5 M lovastatin
Description: The in situ hydrolysis of lovastatin with SEQ ID NO:4 was optimized such that insignificant amounts of NaCl generated: 0.85 g lovastatin in MeOH and equimolar NaOH added. Clarified lysate of E. coli containing SEQ ID NO:4 was added to lovastatin acid. […] See FIG. 27 for an illustration summary of the results.
The results of Response Surface Analysis (RSA) can be applied to large-scale hydrolysis of lovastatin, e.g., using a protocol as illustrated in FIG. 28: • Reaction performed successfully on 100 g scale (0.5 M); • 97.5% conversion in 27 h; • Productivity: x g/g esterase/h; • Specific activity: 0.084 μmol/mg esterase/min.

[5] = Enzyme screen for hydrolysis of simvastatin; format: biochemical; details: 2.5 mM substrate, 100 mM phosphate buffer/co-solvent pH 7 to 8, 30° C., 48 h; confirmed at 1 mM
Description: as §1

[6] = Heat pre-treatment of lovastatin esterase, then lovastatin hydrolysis; format: biochemical; details: 60° C. for 30 min, centrifuged, supernatant used
Text: Heat treatment has often been used as a convenient method to purify crude enzyme preparations when there is differential thermal stability between the desired enzyme and other contaminating proteins.

[7] = Comparison of genomic clones for hydrolysis of lovastatin acid under standard conditions; format: biochemical; details: same total protein concentration or same activity normalized against MUB
Text: Genomic clones comprising sequences encoding enzymes having sequences as set forth in SEQ ID NO:4, SEQ ID NO:2, SEQ ID NO:6 (e.g., encoded by exemplary SEQ ID NO:3, SEQ ID NO:1, and SEQ ID NO:5, respectively), were compared for the hydrolysis of lovastatin acid under standard conditions (the same total protein concentration, or the same enzyme activity normalized against the fluorescent substrate, methylumbelliferyl butyrate (MUB)).

Molecule: C[C@H]1C=C2C=C[C@H](C)[C@H](CC[C@@H](O)C[C@@H](O)CC(=O)O)C2[C@@H](O)C1 (stereo partly drawn) [Triol acid]
solubility [1]: ~200 mM (≈ 67.7 mg/mL)

elimination [2]: 13%
Molecule: CCC(C)(C)C(=O)O[C@H]1C[C@@H](C)C=C2C=C[C@H](C)[C@H](CC[C@@H]3C[C@@H](OC(C)=O)CC(=O)O3)[C@H]21 [4-acetyl simvastatin]

activity for the hydrolysis of lovastatin or lovastatin acid [3]: active
B1: SEQ ID NO:6: feruloyl esterase encoded by SEQ ID NO:5 (protein)
chain: MRSAARISVAAVAFLCLLLTTRVSAQIVPAMECADLANQQLPNTTITSAQTVTTGSLTPPGSTNPITDLPPFCRVTGAIAPTSESHILFEVWLPLDKWNGKFAGVGNGGWAGIISFGALGSQLKRGYATASTNTGHEAAPGMNAARFAFEKPEQLIDFAYRSQHETALKAKALVQAFYGKPPEHSYFIGCSSGGYQGLMEAQRFPADYDGIVAGMPANNWTRLMAGDLDAILAVSVDPASHLPVSALGLLYRSVLAACDGIDGVVDGVLEDPRRCRFDPAVLMCKADQNPDGCLTPAQVEAARRIYGGLKDPKTGAQLYPGLAPGSEPFWPHRNPANPFPIPIAHYKWLVFADPNWDWRTFKFTDPADYQAFLNAEATYAPTLNATNPDLREFSRRGGRLIQYHGWNDQLIAPQNSIDYYESVLSFFGSGKQDRAQTVREVQSFYRLFMAPGMAHCGGGTGPNSFDMLDALEKWVEGGIAPERVLATRSINGVVDRLRPLCPYPQVAVYKGHGDTNDAANFVCRD
modifications: Unkown; Soil sample

activity for the hydrolysis of simvastatin [5]: showed activity
activity for the hydrolysis of lovastatin or lovastatin acid [3]: active
activity of heat pre-treated versus untreated enzyme [6]: no difference in activity
B2: SEQ ID NO:4: novel lovastatin esterase, family VII esterase with SXXK motif, encoded by SEQ ID NO:3 (protein)
chain: MEIHGTCDPKFHLVRQEFERNLRERGEVGASVCVTLHGETVVDLWGGMARADTQTPWTAETVSIVFSSTKGATALCAHMLASRGQLDLDAPVATYWPEFAQAGKARIPVKMLLNHQAGLPAVRTPLPQGAYADWELMVNTLAKEEPFWEPGTRNGYHALTMGWLVGEVVRRVSGKSLGTFFQEEIARPLGLDFWIGLPAEQEARVAPMIAAEPDPQSLFFQEVAKPGALQSLVLLNSGGYMGAQPEYDSRAAHAAEIGAAGGITNARGLAGMYAPLACGGKLKGVELVSPDMLARMSRVASATGRDAVLMMPTRFALGFMKSMDNRREPAGVQDSALFGEEAFGHVGAGGSFGFADPKAGMSFGYTMNRMGLGAGLNPRGQSLVDATYRSLGYQSDASGAWT
modifications: Unkown; Soil sample
Specific activity [4]: 0.084 μmol/mg esterase/min
activity for hydrolysis of lovastatin acid compared among genomic clones [7]: best activity

activity for the hydrolysis of lovastatin or lovastatin acid [3]: active
B3: SEQ ID NO:2: feruloyl esterase encoded by SEQ ID NO:1 (protein)
chain: MSLCVIRFIAGTLVLVASVESAVAQQACADLMGLELPYTTITSAAVATEGPIPQPAIFGSTDPIVAPERCEVRAVTRPTKDSEIRIELWLPLSGWNGKYLQIGSGGWAGSINRTGLIGPLQRGYAVAATDNGHISEGLVPDASWAIGHPQKLIDFGYRAVHETSVQAKAILRAYFGRGQDLSYFSGCSNGGREALMEAQRYPEDFEGIIAGAPANNWSRLFTGFVWNERALADDPIPPAKLTAIQAAAIAACDTLDGVEDGLIENPRACSFDPRSMVCTADDASDCLTEGQVATLHRIYSGPTNPRTGERIFPGYPMGTEAVPGGWVPWIVSASSEVPSIQASFGNSYYGHAVFEQSNWDFRTLDFDQDVAFGDAKAGPVLNATNPDLRSFRANGGKLIQYHGWGDAAITAFSSIDYYENVRAFLDRFPDPRSENTDIDGFYRLFLVPGMGHCSGGIGPSSFGNGFRSARTDAEHDLLSALEAWVERDTAPERLIGTGTAVGDPTATLTRPLCPYPRTARYLGSGNSNDAANFECALPAGVQ
modifications: Unkown; Soil sample
